Source: patent US20240254220A1 (CENTRICSBIO, published 2024)
Where a chain is given by its changes, count along the chain named.

T1: CD300c antigen (11832-H08H, Sino Biological) (human, UniProt Q08708 21-183)
T1 construct: Bought antigen; also called CD300c protein; CD300 antigen-like family member C
T1 sequence (looked up): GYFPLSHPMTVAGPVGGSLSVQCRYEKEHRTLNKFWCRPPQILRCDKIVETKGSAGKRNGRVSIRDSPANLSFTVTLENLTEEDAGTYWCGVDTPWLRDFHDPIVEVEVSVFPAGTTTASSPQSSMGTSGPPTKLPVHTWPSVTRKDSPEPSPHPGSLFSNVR

B1: CB301_H3L1_F4 (antibody, V domains shown)
VH: EVQLLESGGGLVQPGGSLRLSCAASGFTFSGYAMSWVRQAPGKGLEWVSAISGSGGSTYYADSVKGRFTISRDNSKNTLYLQMNSLRAEDTAVYYCARSPSGLFDYWGQGTLVTVSS
VL: QSVLTQPPSASGTPGQRVTISCGGNNIGSKRVHWYQQLPGTAPKLLIYNTSNKHSGVPDRFSGSKSGTSASLAISGLRSEDEADYYCSSYLQQHSLFGGGTKLTVL
B2: CB301_H3L1_E6 (antibody, V domains shown)
VH: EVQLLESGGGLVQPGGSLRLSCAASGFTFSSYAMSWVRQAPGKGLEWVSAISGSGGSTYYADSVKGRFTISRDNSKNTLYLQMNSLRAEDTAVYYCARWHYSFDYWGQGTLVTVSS
VL: QSVLTQPPSASGTPGQRVTISCRGNNIGSKRVHWYQQLPGTAPKLLIYSYNHRPSGVPDRFSGSKSGTSASLAITGLRSEDEADYYCNTWDDSLEGPVFGGGTKLTVL
B3: CB301_H3L1_A10 (antibody, V domains shown)
VH: EVQLLESGGGLVQSGGSLRLSCAASGFTFSSYGMHWVRQAPGKGLEWVSAISGSGGSTYYADSVKGRFTISRDNSKNTLYLQMNSLRAEDTAVYYCVRGYGAMDVWGQGTLVTVSS
VL: QSVLTQPPSASGTPGQRVTISCTRSSGSIASNYVQWYQQLPGTAPKLLIYRNNQRPSGVPDRFSGSKSGTSASLAISGLRSEDEADYYCSSYTTSSTLVFGGGTKLTVL
B4: CB301_H3L1_A12 (antibody, V domains shown)
VH: B3 VH with S14P, G33A, E89K, V97A, R98S, A102L
VL: QSVLTQPPSASGTPGQRVTISCTGTSSDVGNYNLVSWYQQLPGTAPKLLIYSNNQRPSGVPDRFSGSKSGTSASLAISGLRSEDEADYYCSSYTGSNALLFGGGTKLTVL
B5: CL9 (antibody, V domains shown)
VH: B1 VH with G31S, A33Y, M34W, S99I, P100D, S101V, G102Y, L103G, Y106I
VL: QSVLTQPPSASGTPGQRVTISCSGSTSNIGTNYVYWYQQLPGTAPKLLIYDNNNRPSGVPDRFSGSKSGTSASLAISGLRSEDEADYYCQTWDSSTDVVFGGGTKLTVL
notes: also called anti-CD300c monoclonal antibody CL9; CB301 antibody CL9
B6: SK13 (antibody, V domains shown)
VH: RVQLLESGGGLVQPGGSLRLSCAASGFTFSDYAMSWVRQAPGKGLEWVSSISSSSSYIYYTDSVKGRFTISRDNSKNTLYLQMNSLRAEDTAVYYCARGGYGFDYWGQGTLVTVSS
VL: EIVLTQSPGTLSLSPGERATLSCRASQSISSYLNWYQQKPGQAPRLLIYSASSRPQGIPDRFSGSGSGTDFTLTISRLEPEDFAVYYCQQYDDLPFTFGQGTKVEIK
notes: also called anti-CD300c monoclonal antibody SK13; CB301 antibody SK13
B7: CK3 (antibody, V domains shown)
VH: RVQLLESGGGLVQPGGSLRLSCAASGFTFSSYAISWVRQAPGKGLEWVSATSGSGRATYYADSVKGRFTISRDNSKNTLYLQMNSLRAEDTAVYYCARDTWWEGYFDLWGQGTLVTVSS
VL: EIVLTQSPGTLSLSPGERATLSCQASHISTHLNWYQQKPGQAPRLLIYGASSRATGIPDRFSGSGSGTDFTLTISRLEPEDFAVYYCQQYNTYPPTFGQGTKVEIK
notes: also called anti-CD300c monoclonal antibody CK3; CB301 antibody CK3
B8: CL4 (antibody, V domains shown)
VH: RVQLLESGGGLVQPGGSLRLSCAASGFTFGSNYMSWVRQAPGKGLEWVSTISGSGTSTYYADSLKGRFTISRDNSKNTLYLQMNSLRAEDTAVYYCARGMWGMDVWGQGTLVTVSS
VL: QSVLTQPPSASGTPGQRVTISCTGKHRHTVNWYQLLPGTAPKLLIYLDSERPSGVPDRFSGSKSGTSASLAISGLRSEDEADYYCQSYDSSSVVFGGGTKLTVL
notes: also called anti-CD300c monoclonal antibody CL4; CB301 antibody CL4
B9: CK2 (antibody, V domains shown)
VH: B3 VH with S14P, G56T, T58I, V97A, Y100G, G101T, M103F, V105Y
VL: EIVLTQSPGTLSLSPGERATLSCRASQRSDNYLAWYQQKPGQAPRLLIYDASNRATGIPDRFSGSGSGTDFTLTISRLEPEDFAVYYCQQSYSTPFTFGQGTKVETK
notes: also called anti-CD300c monoclonal antibody CK2; CB301 antibody CK2
B10: SK11 (antibody, V domains shown)
VH: B3 VH with E1R, S14P, S31T, V97A, Y100L, G101S, A102G, M103L, V105Y
VL: B9 VL with A25S, R28G, S29I, D30T, F96L, T106I
notes: also called anti-CD300c monoclonal antibody SK11; CB301 antibody SK11
B11: SK17 (antibody, V domains shown)
VH: EVQLLESGGGLVQPGGSLRLSCAASGFTFSSYYWSWVRQAPGKGLEWVSTITGSGGSTDYANSVKGRFTISRDNSKNTLYLQMNSLRAEDTAVYYCATGGGIFDYWGQGTLVTVSS
VL: EIVLTQSPGTLSLSPGERATLSCQASQTISNYLNWYQQKPGQAPRLLIYDASNRATGIPDRFSGSGSGTDFTLTISRLEPEDFAVYYCQQYNSYPPSFGQGTKVEIK
notes: also called anti-CD300c monoclonal antibody SK17; CB301 antibody SK17
B12: CK1 (antibody, V domains shown)
VH: EVQLLESGGGLVQPGGSLRLSCAASGFTFSRYAMTWVRQAPGKGLEWVSSMSGTGGTTYYADSVKGRFTISRDNSKNTLYLQMNSLRAEDTAVYYCARGAYGFDHWGQGTLVTVSS
VL: EIVLTQSPGTLSLSPGERATLSCRASQSIGNYLNWYQQKPGQAPRLLIYDASNLETGIPDRFSGSGSGTDFTLTISRLEPEDFAVYYCQQSSAIPYTFGQGTKVEIK
notes: also called anti-CD300c monoclonal antibody CK1; CB301 antibody CK1
B13: SK15 (antibody, V domains shown)
VH: RVQLLESGGGLVQPGGSLRLSCAASGFTFSSYAMHWVRQAPGKGLEWVSAINGSGGSTYYADSVKGRFTISRDNSKNTLYLQTNSLRAEDTAVYYCARGLQGFDYWGQGTLVTVSS
VL: B12 VL with R24Q, S28D, G30T, N53S, S92Y, A93S, I94T, Y96I
notes: also called anti-CD300c monoclonal antibody SK15; CB301 antibody SK15
B14: SK16 (antibody, V domains shown)
VH: B13 VH with H35S, Y59L, T83M, L100V, Q101S, Y105S
VL: B9 VL with A25I, R28S, S29I, D30S, N31S, A34N, N53L, S93K, F96I, T106I
notes: also called anti-CD300c monoclonal antibody SK16; CB301 antibody SK16
B15: CL6 (antibody, V domains shown)
VH: EVQLLESGGGLVQPGGSLRLSCAASGFTFSSYGMHWVRQAPGKGLEWVSAISGSGGSTYYADSVKGRFTISRDNSKNTLYLQMNSLRAEDTAVYYCAVSGAGRGFFDYWGQGTLVTVSS
VL: QSVLTQPPSASGTPGQRVTISCSGSSSNIGSNYVYWYQQLPGTAPKLLIYEDNKRPSGVPDRFSGSKSGTSASLAISGLRSEDEADYYCSSYTSSSTVIFGGGTKLTVL
notes: also called anti-CD300c monoclonal antibody CL6; CB301 antibody CL6
B16: SK14 (antibody, V domains shown)
VH: EVQLLESGGGLVQPGGSLRLSCAASGFTFSNFAIAWVRQAPGKGLEWVSAISGRGTSTYYADSVKGRFTISRDNSKNTLYLQMNSLRAEDTAVYYCARGVSGFDSWGQGTLVTVSS
VL: B9 VL with R28S, S29I, D30S, N31S, Y32H, A51T, T106I
notes: also called anti-CD300c monoclonal antibody SK14; CB301 antibody SK14
B17: SK12 (antibody, V domains shown)
VH: B13 VH with N52S, S57D, Y60H, T83M, A97T, Q101S
VL: EIVLTQSPGTLSLSPGERATLSCRASQSISSYLNWYQQKPGQAPRLLIYDASNRAPGIPDRFSGSGSGTDFTLTISRLEPEDFAVYYCQQSYSIPITFGQGTKVEIKF
notes: also called anti-CD300c monoclonal antibody SK12; CB301 antibody SK12
B18: CL5 (antibody, V domains shown)
VH: RVQLLESGGGLVQPGGSLRLSCAASGFTFSSYAMHWVRQAPGKGLEWVSSISGGGYGTYYADSVKGRFTISRDNSKNTLYLQMNSLRAEDTAVYYCARSTVWAFDIWGQGTLVTVSS
VL: QSVLTQPPSASGTPGQRVTISCSGNNIGSKSVHWYQQLPGTAPKLLIYDVSKRPSERPDRFSGSKSGTSASLAISDLRSEDEADYYCQSFDSSGTWIFGGGTKLTVL
notes: also called anti-CD300c monoclonal antibody CL5; CB301 antibody CL5

Target: T1, CD300c antigen (11832-H08H, Sino …)
Assay: selection ELISA of Example 1.2, scFv periplasmic extract on coated CD300c antigen
Experimental: In order to select anti-CD300c monoclonal antibodies specifically binding, with high binding affinity, to a CD300c antigen, ELISA was performed using the library pool obtained by the same method as in Example 1.1. More specifically, each of a CD300c antigen and a CD300a antigen in a coating buffer (0.1 M sodium carbonate, pH 9.0) was dispensed into an ELISA plate at a concentration of 5 μg/mL per well, followed by incubation at room temperature for 3 hours, to allow the antigen to bind to the plate. The unbound antigens were removed by washing three times using phosphate buffered saline-Tween 20 (PBST), and then 350 μL of PBST supplemented with 2% bovine serum albumin (BSA) was added to each well, followed by incubation at room temperature for 1 hour and then washing again using PBST. Then, 25 μg of a periplasmic extract containing scFv obtained by the same method as in Example 1.1 was added thereto, followed by incubation for 1 hour at room temperature for antigen binding. After 1 hour, the unbound scFv was removed by washing three times using PBST, and then 4 μg/mL of an antibody for detection was added, followed by incubation again at room temperature for 1 hour. Subsequently, the unbound antibodies for detection were removed using PBST, and then HRP-conjugated anti-rabbit IgG was added, followed by incubation at room temperature for 1 hour. The unbound antibodies were removed again using PBST. Subsequently, 3,3′,5,5′-tetramethylbenzidine (TMB) solution was added, followed by incubation for 10 minutes for development. Then, 2 N sulfuric acid solution was added to terminate the development reaction, and the absorbance was measured at 450 nm to identify the antibodies specifically binding to the CD300c antigen.

Row | binding result | Binder
1 | binds | B1
2 | binds | B2
3 | binds | B3
4 | binds | B4

Target: T1, CD300c antigen (11832-H08H, Sino …)
Assay: binding ELISA, plate coated with CD300c antigen (8 µg/mL), HRP anti-Fc IgG detection
Experimental: In order to identify the antigen-binding ability of the anti-CD300c monoclonal antibodies produced in Example 1, binding ELISA was performed. Specifically, a CD300c antigen (11832-H08H, Sino Biological) or a CD300a antigen (12449-H08H, Sino Biological) in a coating buffer (0.1 M sodium carbonate, pH 9.0) was dispensed into an ELISA plate at a concentration of 8 μg/mL per well, followed by incubation at room temperature for 3 hours to allow the antigen to be bound to the plate. The unbound antigens were removed by washing three times using phosphate buffered saline-Tween 20 (PBST), and then 300 μL of PBST supplemented with 5% bovine serum albumin (BSA) was added to each well, followed by incubation at room temperature for 1 hour and then washing using PBST. Then, an anti-CD300c monoclonal antibody was diluted in quadruplicate and added thereto, followed by incubation for 1 hour at room temperature for antigen binding. After 1 hour, washing was performed three times using PBST to remove unbound anti-CD300c monoclonal antibody, and then 4 μg/mL of an antibody for detection (HRP conjugated anti-Fc IgG) was added, followed by incubation again at room temperature for 1 hour. Subsequently, the unbound antibody for detection was removed using PBST, and then TMB solution was added, followed by incubation for 10 minutes for development. Then, 2 N sulfuric acid solution was added to terminate the development reaction, and the absorbance was measured at 450 nm to identify the antibodies specifically binding to the CD300c antigen.

Row | EC50 | Binder
5 | 0.094 µg/mL | B5
6 | 0.044 µg/mL | B6
7 | 0.793 µg/mL | B7
8 | 0.031 µg/mL | B8
9 | 0.033 µg/mL | B9
10 | 0.052 µg/mL | B10
11 | 0.054 µg/mL | B11
12 | 0.056 µg/mL | B12
13 | 14.7 µg/mL | B13
14 | 2.42 µg/mL | B14
15 | 0.148 µg/mL | B15
16 | 0.065 µg/mL | B16
17 | 0.067 µg/mL | B17
18 | 0.032 µg/mL | B18
